Results: patent publication US20070105771A1 (Y S THERAPEUTICS, published 2007)

Key:
[1] = molecular target: T1, human CD26-derived 13 mer peptide 74 (human); assay: peptide microarray
T1 peptide: IYNGITDWVYEEE
Experimental: (§1) The overnight incubation was followed by three washings with each of PBS buffer pH 7.5 and water. The microarrays were then scanned using ArrayWorx-Microarray Scanner.
(§2) The SPOT recognition software package ArrayPro was used for data analysis. The mean of signal intensities from 3 identical subarrays on each microarray image was used for data evaluation.

[2] = molecular target: T2, human CD26-derived 13 mer peptide 88 (human); assay: peptide microarray
T2 peptide: FLAYAQFNDTEVP
Experimental: as §1, §2

[3] = molecular target: T3, human CD26-derived 13 mer peptide 89 (human); assay: peptide microarray
T3 peptide: AYAQFNDTEVPLI
Experimental: as §1, §2

[4] = molecular target: T4, human CD26-derived 13 mer peptide 90 (human); assay: peptide microarray
T4 peptide: AQFNDTEVPLIEY
Experimental: as §1, §2

[5] = molecular target: T5, human CD26-derived 13 mer peptide 96 (human); assay: peptide microarray
T5 peptide: YSFYSDESLQYPK
Experimental: as §1, §2

[6] = molecular target: T6, human CD26-derived 13 mer peptide 99 (human); assay: peptide microarray
T6 peptide: ESLQYPKTVRVPY
Experimental: as §1, §2

[7] = molecular target: T7, human CD26-derived 13 mer peptide 100 (human); assay: peptide microarray
T7 peptide: LQYPKTVRVPYPK
Experimental: as §1, §2

[8] = molecular target: T8, human CD26-derived 13 mer peptide 102 (human); assay: peptide microarray
T8 peptide: KTVRVPYPKAGAV
Experimental: as §1, §2

[9] = molecular target: T9, human CD26-derived 13 mer peptide 103 (human); assay: peptide microarray
T9 peptide: VRVPYPKAGAVNP
Experimental: as §1, §2

[10] = molecular target: T10, human CD26-derived 13 mer peptide 104 (human); assay: peptide microarray
T10 peptide: VPYPKAGAVNPTV
Experimental: as §1, §2

[11] = molecular target: T11, human CD26-derived 13 mer peptide 105 (human); assay: peptide microarray
T11 peptide: YPKAGAVNPTVKF
Experimental: as §1, §2

[12] = molecular target: T12, human CD26-derived 13 mer peptide 106 (human); assay: peptide microarray
T12 peptide: KAGAVNPTVKFFV
Experimental: as §1, §2

[13] = molecular target: T13, human CD26-derived 13 mer peptide 108 (human); assay: peptide microarray
T13 peptide: VNPTVKFFVVNTD
Experimental: as §1, §2

[14] = molecular target: T14, human CD26-derived 13 mer peptide 109 (human); assay: peptide microarray
T14 peptide: PTVKFFVVNTDSL
Experimental: as §1, §2

[15] = molecular target: T15, human CD26-derived 13 mer peptide 110 (human); assay: peptide microarray
T15 peptide: VKFFVVNTDSLSS
Experimental: as §1, §2

[16] = molecular target: T16, human CD26-derived 13 mer peptide 111 (human); assay: peptide microarray
T16 peptide: FFVVNTDSLSSVT
Experimental: as §1, §2

[17] = molecular target: T17, human CD26-derived 13 mer peptide 112 (human); assay: peptide microarray
T17 peptide: VVNTDSLSSVTNA
Experimental: as §1, §2

[18] = molecular target: T18, human CD26-derived 13 mer peptide 113 (human); assay: peptide microarray
T18 peptide: NTDSLSSVTNATS
Experimental: as §1, §2

[19] = molecular target: T19, human CD26-derived 13 mer peptide 114 (human); assay: peptide microarray
T19 peptide: DSLSSVTNATSIQ
Experimental: as §1, §2

[20] = molecular target: T20, human CD26-derived 13 mer peptide 115 (human); assay: peptide microarray
T20 peptide: LSSVTNATSIQIT
Experimental: as §1, §2

[21] = molecular target: T21, human CD26-derived 13 mer peptide 116 (human); assay: peptide microarray
T21 peptide: SVTNATSIQITAP
Experimental: as §1, §2

[22] = molecular target: T22, human CD26-derived 13 mer peptide 117 (human); assay: peptide microarray
T22 peptide: TNATSIQITAPAS
Experimental: as §1, §2

[23] = molecular target: T23, human CD26-derived 13 mer peptide 118 (human); assay: peptide microarray
T23 peptide: ATSIQITAPASML
Experimental: as §1, §2

[24] = molecular target: T24, human CD26-derived 13 mer peptide 119 (human); assay: peptide microarray
T24 peptide: SIQITAPASMLIG
Experimental: as §1, §2

[25] = molecular target: T25, human CD26-derived 13 mer peptide 120 (human); assay: peptide microarray
T25 peptide: QITAPASMLIGDH
Experimental: as §1, §2

[26] = molecular target: T26, human CD26-derived 13 mer peptide 122 (human); assay: peptide microarray
T26 peptide: PASMLIGDHYLCD
Experimental: as §1, §2

[27] = molecular target: T27, human CD26-derived 13 mer peptide 130 (human); assay: peptide microarray
T27 peptide: ATQERISLQWLRR
Experimental: as §1, §2

[28] = molecular target: T28, human CD26-derived 13 mer peptide 9 (human); assay: peptide microarray
T28 peptide: SDHEYLYKQENNI
Experimental: as §1, §2

[29] = molecular target: T29, human CD26-derived 13 mer peptide 12 (human); assay: peptide microarray
T29 peptide: YKQENNILVFNAE
Experimental: as §1, §2

[30] = molecular target: T30, human CD26-derived 13 mer peptide 14 (human); assay: peptide microarray
T30 peptide: NNILVFNAEYGNS
Experimental: as §1, §2

[31] = molecular target: T31, human CD26-derived 13 mer peptide 18 (human); assay: peptide microarray
T31 peptide: EYGNSSVFLENST
Experimental: as §1, §2

[32] = molecular target: T32, human CD26-derived 13 mer peptide 19 (human); assay: peptide microarray
T32 peptide: GNSSVFLENSTFD
Experimental: as §1, §2

[33] = molecular target: T33, human CD26-derived 13 mer peptide 20 (human); assay: peptide microarray
T33 peptide: SSVFLENSTFDEF
Experimental: as §1, §2

[34] = molecular target: T34, human CD26-derived 13 mer peptide 21 (human); assay: peptide microarray
T34 peptide: VFLENSTFDEFGH
Experimental: as §1, §2

[35] = molecular target: T35, human CD26-derived 13 mer peptide 22 (human); assay: peptide microarray
T35 peptide: LENSTFDEFGHSI
Experimental: as §1, §2

[36] = molecular target: T36, human CD26-derived 13 mer peptide 23 (human); assay: peptide microarray
T36 peptide: NSTFDEFGHSIND
Experimental: as §1, §2

[37] = molecular target: T37, human CD26-derived 13 mer peptide 24 (human); assay: peptide microarray
T37 peptide: TFDEFGHSINDYS
Experimental: as §1, §2

[38] = molecular target: T38, human CD26-derived 13 mer peptide 25 (human); assay: peptide microarray
T38 peptide: DEFGHSINDYSIS
Experimental: as §1, §2

[39] = molecular target: T39, human CD26-derived 13 mer peptide 26 (human); assay: peptide microarray
T39 peptide: FGHSINDYSISPD
Experimental: as §1, §2

[40] = molecular target: T40, human CD26-derived 13 mer peptide 27 (human); assay: peptide microarray
T40 peptide: HSINDYSISPDGQ
Experimental: as §1, §2

[41] = molecular target: T41, human CD26-derived 13 mer peptide 42 (human); assay: peptide microarray
T41 peptide: ASYDIYDLNKRQL
Experimental: as §1, §2

[42] = molecular target: T42, human CD26-derived 13 mer peptide 44 (human); assay: peptide microarray
T42 peptide: IYDLNKRQLITEE
Experimental: as §1, §2

[43] = molecular target: T43, human CD26-derived 13 mer peptide 45 (human); assay: peptide microarray
T43 peptide: DLNKRQLITEERI
Experimental: as §1, §2

[44] = molecular target: T44, human CD26-derived 13 mer peptide 46 (human); assay: peptide microarray
T44 construct: also called NKRQL1TEERIPN
T44 peptide: NKRQLITEERIPN
Experimental: as §1, §2

[45] = molecular target: T45, human CD26-derived 13 mer peptide 47 (human); assay: peptide microarray
T45 peptide: RQLITEERIPNNT
Experimental: as §1, §2

[46] = molecular target: T46, human CD26-derived 13 mer peptide 49 (human); assay: peptide microarray
T46 construct: also called TEERJPNNTQWVT
T46 peptide: TEERIPNNTQWVT
Experimental: as §1, §2

[47] = molecular target: T47, human CD26-derived 13 mer peptide 51 (human); assay: peptide microarray
T47 peptide: IPNNTQWVTWSPV
Experimental: as §1, §2

[48] = molecular target: T48, human CD26-derived 13 mer peptide 61 (human); assay: peptide microarray
T48 peptide: WNNDIYVKIEPNL
Experimental: as §1, §2

[49] = molecular target: human CD26 on the cell surface (human, UniProt P27487 1-766); assay: cell-based or functional assay
Sequence of human CD26 on the cell surface (P27487 whole entry): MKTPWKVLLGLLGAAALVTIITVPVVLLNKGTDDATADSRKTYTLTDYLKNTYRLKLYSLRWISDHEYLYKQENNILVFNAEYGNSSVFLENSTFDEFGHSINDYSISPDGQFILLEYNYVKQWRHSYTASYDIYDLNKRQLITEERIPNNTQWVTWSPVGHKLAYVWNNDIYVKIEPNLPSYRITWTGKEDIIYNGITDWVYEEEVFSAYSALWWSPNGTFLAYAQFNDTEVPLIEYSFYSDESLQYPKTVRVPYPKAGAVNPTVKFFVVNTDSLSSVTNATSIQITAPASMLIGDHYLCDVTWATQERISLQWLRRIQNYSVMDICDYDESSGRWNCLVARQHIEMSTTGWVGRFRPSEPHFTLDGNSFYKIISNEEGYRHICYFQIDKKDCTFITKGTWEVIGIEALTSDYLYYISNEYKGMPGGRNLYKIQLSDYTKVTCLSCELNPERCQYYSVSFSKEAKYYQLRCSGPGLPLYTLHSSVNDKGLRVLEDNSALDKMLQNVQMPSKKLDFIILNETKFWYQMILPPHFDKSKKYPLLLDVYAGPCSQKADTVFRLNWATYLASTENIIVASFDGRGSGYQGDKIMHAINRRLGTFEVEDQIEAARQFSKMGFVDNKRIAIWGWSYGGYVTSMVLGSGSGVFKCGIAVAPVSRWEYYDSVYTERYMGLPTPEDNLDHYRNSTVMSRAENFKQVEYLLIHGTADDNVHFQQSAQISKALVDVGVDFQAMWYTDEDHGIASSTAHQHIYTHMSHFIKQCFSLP

B1: rhuMAb 409 (antibody, human IgG1, V domains shown)
VH: QVKLQESGPGLVQPSQTLSITCTVSGFSLTTYGVHWVRQSPGKGLEWLGVIWGGGRTDYDAAFISRLSISKDNSKSQVFFKMNSLQANDTAIYYCVRNRHDWFDYWGQGTTVTVSS
VL: DIQMTQSPSSLSASLGDRVTITCSASQGIRNSLNWYQQKPDGAVKLLIYYSSNLHSGVPSRFSGSGSGTDFSLTISNLEPEDIATYYCQQSIKLPFTFGSGTKLEIKR
notes: CM03 VH and VL with human IgG1 heavy chain constant region and human kappa constant region; also called X409
[1]
  Mean Signal Value: 0
[2]
  Mean Signal Value: 0
[3]
  Mean Signal Value: 0
[4]
  Mean Signal Value: 0
[5]
  Mean Signal Value: 0
[6]
  Mean Signal Value: 0
[7]
  Mean Signal Value: 0
[8]
  Mean Signal Value: 0
[9]
  Mean Signal Value: 0
[10]
  Mean Signal Value: 0
[11]
  Mean Signal Value: 0
[12]
  Mean Signal Value: 0
[13]
  Mean Signal Value: 0
[14]
  Mean Signal Value: 0
[15]
  Mean Signal Value: 0
[16]
  Mean Signal Value: 0
[17]
  Mean Signal Value: 0
[18]
  Mean Signal Value: 0
[19]
  Mean Signal Value: 0
[20]
  Mean Signal Value: 0
[21]
  Mean Signal Value: 0
[22]
  Mean Signal Value: 0
[23]
  Mean Signal Value: 0
[24]
  Mean Signal Value: 0
[25]
  Mean Signal Value: 0
[26]
  Mean Signal Value: 0
[27]
  Mean Signal Value: 10
[28]
  Mean Signal Value: 0
[29]
  Mean Signal Value: 0
[30]
  Mean Signal Value: 0
[31]
  Mean Signal Value: 0
[32]
  Mean Signal Value: 0
[33]
  Mean Signal Value: 0
[34]
  Mean Signal Value: 0
[35]
  Mean Signal Value: 0
[36]
  Mean Signal Value: 0
[37]
  Mean Signal Value: 0
[38]
  Mean Signal Value: 0
[39]
  Mean Signal Value: 0
[40]
  Mean Signal Value: 0
[41]
  Mean Signal Value: 0
[42]
  Mean Signal Value: 0
[43]
  Mean Signal Value: 0
[44]
  Mean Signal Value: 0
[45]
  Mean Signal Value: 0
[46]
  Mean Signal Value: 0
[47]
  Mean Signal Value: 0
[48]
  Mean Signal Value: 0
[49]
  percent inhibition, MTT assay, Jurkat CD26+ cells, 0.05 ug/ml: 4.8%
  percent inhibition, MTT assay, Jurkat CD26+ cells, 0.25 ug/ml: 12.9%
  percent inhibition, MTT assay, Jurkat CD26+ cells, 0.5 ug/ml: 14.7%
  percent inhibition, MTT assay, Jurkat CD26+ cells, 2.5 ug/ml: 19.7%
  percent inhibition, MTT assay, Jurkat CD26+ cells, 5 ug/ml: 21.7%
